T1: human Nectin-4 Mutant 7 (human, UniProt Q96NY8 32-510)
T1 construct: Expressed on transfected HEK293T cells; also called S195A/K197T/S199A
T1 chain: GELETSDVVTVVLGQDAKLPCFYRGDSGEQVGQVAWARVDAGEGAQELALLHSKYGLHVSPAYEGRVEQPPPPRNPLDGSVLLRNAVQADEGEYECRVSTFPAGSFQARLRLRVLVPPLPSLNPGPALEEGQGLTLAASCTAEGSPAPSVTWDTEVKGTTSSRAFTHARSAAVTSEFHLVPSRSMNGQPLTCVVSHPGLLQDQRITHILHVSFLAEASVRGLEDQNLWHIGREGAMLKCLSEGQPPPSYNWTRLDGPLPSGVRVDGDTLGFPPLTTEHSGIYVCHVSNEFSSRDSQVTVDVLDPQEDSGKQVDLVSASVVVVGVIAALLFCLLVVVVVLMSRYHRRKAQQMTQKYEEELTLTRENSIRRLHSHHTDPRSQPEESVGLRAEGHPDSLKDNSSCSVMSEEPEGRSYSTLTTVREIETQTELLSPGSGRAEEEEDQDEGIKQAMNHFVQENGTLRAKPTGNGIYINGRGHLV

T2: human Nectin-4 Mutant 7bis (human, UniProt Q96NY8 32-510)
T2 construct: Expressed on transfected HEK293T cells; also called A72P/G73N/K197T/S199A
T2 chain: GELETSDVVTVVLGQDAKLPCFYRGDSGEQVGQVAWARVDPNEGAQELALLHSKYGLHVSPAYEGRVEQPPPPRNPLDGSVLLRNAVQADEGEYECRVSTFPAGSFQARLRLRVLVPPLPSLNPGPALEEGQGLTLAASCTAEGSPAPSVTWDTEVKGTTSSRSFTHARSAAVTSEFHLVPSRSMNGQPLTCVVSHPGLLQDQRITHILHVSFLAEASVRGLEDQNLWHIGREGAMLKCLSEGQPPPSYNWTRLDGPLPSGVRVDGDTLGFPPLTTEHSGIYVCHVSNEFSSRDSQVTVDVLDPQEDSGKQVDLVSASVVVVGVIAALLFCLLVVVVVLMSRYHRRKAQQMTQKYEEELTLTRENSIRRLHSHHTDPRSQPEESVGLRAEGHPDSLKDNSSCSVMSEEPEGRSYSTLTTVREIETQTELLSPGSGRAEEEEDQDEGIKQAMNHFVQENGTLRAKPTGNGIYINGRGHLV

T3: human Nectin-4 Mutant 1 (human, UniProt Q96NY8 32-510)
T3 construct: Expressed on transfected HEK293T cells; also called S58P/G59D/Q61A/N106D/P107A
T3 chain: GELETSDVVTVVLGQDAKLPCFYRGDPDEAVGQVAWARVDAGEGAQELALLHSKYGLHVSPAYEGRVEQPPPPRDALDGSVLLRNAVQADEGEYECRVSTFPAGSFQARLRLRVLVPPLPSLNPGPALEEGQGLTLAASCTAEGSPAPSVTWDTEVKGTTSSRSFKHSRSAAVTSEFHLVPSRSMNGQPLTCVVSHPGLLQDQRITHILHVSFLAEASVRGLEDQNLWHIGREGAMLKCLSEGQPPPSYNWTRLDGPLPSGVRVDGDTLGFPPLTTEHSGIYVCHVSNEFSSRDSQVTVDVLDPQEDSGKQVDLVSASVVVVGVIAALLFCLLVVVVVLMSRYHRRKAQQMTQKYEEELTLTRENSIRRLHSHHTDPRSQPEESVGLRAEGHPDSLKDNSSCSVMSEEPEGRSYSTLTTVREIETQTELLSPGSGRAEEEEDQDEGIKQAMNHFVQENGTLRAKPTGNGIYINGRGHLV

T4: human Nectin-4 expressed on cells (human, UniProt Q96NY8 32-510)
T4 sequence: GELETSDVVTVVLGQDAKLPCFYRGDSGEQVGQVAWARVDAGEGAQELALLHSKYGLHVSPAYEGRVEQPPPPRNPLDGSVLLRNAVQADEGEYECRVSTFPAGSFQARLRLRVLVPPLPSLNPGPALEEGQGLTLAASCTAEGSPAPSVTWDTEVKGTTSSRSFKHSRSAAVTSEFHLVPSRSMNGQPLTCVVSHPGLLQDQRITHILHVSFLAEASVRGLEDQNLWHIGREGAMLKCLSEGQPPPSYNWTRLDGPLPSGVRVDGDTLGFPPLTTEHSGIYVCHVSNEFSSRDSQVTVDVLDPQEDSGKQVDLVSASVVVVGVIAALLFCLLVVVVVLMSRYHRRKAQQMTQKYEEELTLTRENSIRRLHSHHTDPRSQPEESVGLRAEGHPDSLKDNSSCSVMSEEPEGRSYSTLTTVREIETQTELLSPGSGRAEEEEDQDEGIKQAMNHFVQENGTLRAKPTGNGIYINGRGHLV


Legend:
[1] = biological target: T1, human Nectin-4 Mutant 7; experiment: binding to HEK293T cells expressing Nectin-4 mutant
[2] = biological target: T2, human Nectin-4 Mutant 7bis; experiment: as above
[3] = biological target: T3, human Nectin-4 Mutant 1; experiment: binding to HEK293T cells expressing Nectin-4 mutant; '-' means association does not occur
[4] = biological target: T4, human Nectin-4 expressed on cells; experiment: cell-based or functional assay
[5] = biological target: T3, human Nectin-4 Mutant 1; experiment: binding to HEK293T cells expressing Nectin-4 mutant
[6] = biological target: T1, human Nectin-4 Mutant 7; experiment: binding to HEK293T cells expressing Nectin-4 mutant; '-' means association does not occur
[7] = biological target: T2, human Nectin-4 Mutant 7bis; experiment: as above

Row | internalization efficiency on SUM190, normalized to chimeric parental antibody (Fab-ZAP, CTG), experiment 1 [4] | internalization efficiency on SUM190, normalized to chimeric parental antibody (Fab-ZAP, CTG), experiment 2 [4] | binding result [5] | binding result [6] | binding result [7] | Binder | binding result [1] | binding result [2] | binding result [3]
1 | – | – | – | – | – | N41 (antibody, V domains shown) VH: QVQLKQSGPGLVQPSQSLSITCTVSGFSLTNYGVHWVRQSPGKGLEWLGVIWSGGSTDYNAAFISRLSISKDTSKSQVFFKMNSLQADDTAIYYCARELIHAMDNWGQGTSVTVSS VL: DIQMTQSPASLSVSVGETVTITCRASENIYSNLAWYQQKQGNSPQLLVFAATNLADGVPSRFSGSGSGTQYSLKINSLQSEDFGTYYCQHFWGTPTFGGGTKLEIK | binds | binds | no binding
2 | 100 % of chimeric parental | 100 % of chimeric parental | binds | no binding | no binding | chimeric parental 5E7 antibody (antibody, V domains shown, Chimeric antibody, murine variable domains with human constant regions; also called ch5E7; CHG1-M-1N4-5E7) VH: QVQLQQPGAELVKPGASVKLSCKASGYIFTSYWMHWVKQRPGQGLEWIGEIDPSDSYTNYNQKFKGKATLTLDKSSSTTYMQLSSLTSEDSAVYYCVRGYGNYGDYWGQGTTLTVSS VL: DVVMTQAAFSNPVTLGTSASISCRSSKSLLHSNGITYLYWYLQKPGQSPQLLIYQMSNLASGVPDRFSSSGSGTDFTLRISRVEAEDVGVYYCAQNLELPWTFGGGTKLEIKR | – | – | –

Source: patent US20250297004A1, “NECTIN-4 BINDING AGENTS” (INNATE PHARMA, priority 2022, published 2025)
